The labels stand for the following.
B1: Aspartate/asparagine-β-hydroxylase (AspH) (Homo sapiens; H679A) (protein)
chain: RKTDDPEQKAKVKKKKPKLLNKFDKTIKAELDAAEKLRKRGKIEEAVNAFKELVRKYPQSPRARYGKAQCEDDLAEKRRSNEVLRGAIETYQEVASLPDVPADLLKLSLKRRSDRQQFLGHMRGSLLTLQRLVQLFPNDTSLKNDLGVGYLLIGDNDNAKKVYEEVLSVTPNDGFAKVHYGFILKAQNKIAESIPYLKEGIESGDPGTDDGRFYFHLGDAMQRVGNKEAYKWYELGHKRGHFASVWQRSLYNVNGLKAQPWWTPKETGYTELVKSLERNWKLIRDEGLAVMDKAKGLFLPEDENLREKGDWSQFTLWQQGRRNENACKGAPKTCTLLEKFPETTGCRRGQIKYSIMHPGTHVWPATGPTNCRLRMHLGLVIPKEGCKIRCANETKTWEEGKVLIFDDSFEHEVWQDASSFRLIFIVDVWHPELTPQQRRSLPAI
B2: Aspartate/asparagine-β-hydroxylase (AspH) (Homo sapiens) (protein)
chain: RKTDDPEQKAKVKKKKPKLLNKFDKTIKAELDAAEKLRKRGKIEEAVNAFKELVRKYPQSPRARYGKAQCEDDLAEKRRSNEVLRGAIETYQEVASLPDVPADLLKLSLKRRSDRQQFLGHMRGSLLTLQRLVQLFPNDTSLKNDLGVGYLLIGDNDNAKKVYEEVLSVTPNDGFAKVHYGFILKAQNKIAESIPYLKEGIESGDPGTDDGRFYFHLGDAMQRVGNKEAYKWYELGHKRGHFASVWQRSLYNVNGLKAQPWWTPKETGYTELVKSLERNWKLIRDEGLAVMDKAKGLFLPEDENLREKGDWSQFTLWQQGRRNENACKGAPKTCTLLEKFPETTGCRRGQIKYSIMHPGTHVWPHTGPTNCRLRMHLGLVIPKEGCKIRCANETKTWEEGKVLIFDDSFEHEVWQDASSFRLIFIVDVWHPELTPQQRRSLPAI
B3: Aspartate/asparagine-β-hydroxylase (AspH) (Homo sapiens; H725A) (protein)
chain: RKTDDPEQKAKVKKKKPKLLNKFDKTIKAELDAAEKLRKRGKIEEAVNAFKELVRKYPQSPRARYGKAQCEDDLAEKRRSNEVLRGAIETYQEVASLPDVPADLLKLSLKRRSDRQQFLGHMRGSLLTLQRLVQLFPNDTSLKNDLGVGYLLIGDNDNAKKVYEEVLSVTPNDGFAKVHYGFILKAQNKIAESIPYLKEGIESGDPGTDDGRFYFHLGDAMQRVGNKEAYKWYELGHKRGHFASVWQRSLYNVNGLKAQPWWTPKETGYTELVKSLERNWKLIRDEGLAVMDKAKGLFLPEDENLREKGDWSQFTLWQQGRRNENACKGAPKTCTLLEKFPETTGCRRGQIKYSIMHPGTHVWPHTGPTNCRLRMHLGLVIPKEGCKIRCANETKTWEEGKVLIFDDSFEAEVWQDASSFRLIFIVDVWHPELTPQQRRSLPAI

Here are results for three proteins from article PMC10947486.

Substrate in the series: O=C(O)CCC(=O)C(=O)O
Nature of the series: purified protein. The settings on record: Fe(II) active site Fe(II).
On to B1, for which the Km came to 109 ± 20 µM, the turnover number (kcat) stood at 0.18 s⁻¹ and the kcat/Km is 1700 M⁻¹ s⁻¹.

Turning to B2, the Km was determined as 1.1 ± 0.4 µM, the kcat came to 0.31 s⁻¹ and the kcat/Km was 282000 M⁻¹ s⁻¹.

B3: the Km was determined as 211 ± 65 µM, the kcat was determined as 0.08 s⁻¹ and the kcat/Km was found to be 380 M⁻¹ s⁻¹.

A word on the Km: it is the concentration of substrate that gives half-maximal velocity. The kcat is the number of substrate molecules converted per active site and unit of time at saturation. A word on the kcat/Km: it is the turnover number divided by the Michaelis constant.
